Substitutions are numbered along the chain they refer to. Names may count otherwise. “Also recorded” adds a separate entry of the source.

The chains are these.
T1: ART2b(R204K) (Rattus norvegicus, UniProt P20974, R204K)
T1 construct: made in house; host or cells: rat mammary adenocarcinoma (NMU) cells, pMAMneo vector, dexamethasone-induced; released with PI-PLC
T1 sequence (P20974 21-246 R204K limits assumed): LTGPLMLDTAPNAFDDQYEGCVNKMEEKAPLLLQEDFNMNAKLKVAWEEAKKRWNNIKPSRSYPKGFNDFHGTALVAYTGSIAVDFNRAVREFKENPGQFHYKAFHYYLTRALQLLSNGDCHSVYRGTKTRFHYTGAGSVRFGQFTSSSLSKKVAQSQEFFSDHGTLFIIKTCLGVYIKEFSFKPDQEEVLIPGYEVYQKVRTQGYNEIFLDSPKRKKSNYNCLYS

B1: ART2b(R204W): rat ART2b with arginine-to-tryptophan substitution at position 204 (protein, UniProt P20974 21-246, looked up, variant R204W)
T-cell …: T1 sequence (P20974 21-246 R204K limits assumed) with K184W
B2: ART2b: rat ADP-ribosyltransferase ART2b (RT6.2), SEQ ID NO:12, wild type (protein, listed as Rattus norvegicus)
chain: MPSNICKFFLTWWLIQQVTGLTGPLMLDTAPNAFDDQYEGCVNKMEEKAPLLLQEDFNMNAKLKVAWEEAKKRWNNIKPSRSYPKGFNDFHGTALVAYTGSIAVDFNRAVREFKENPGQFHYKAFHYYLTRALQLLSNGDCHSVYRGTKTRFHYTGAGSVRFGQFTSSSLSKKVAQSQEFFSDHGTLFIIKTCLGVYIKEFSFRPDQEEVLIPGYEVYQKVRTQGYNEIFLDSPKRKKSNYNCLYSSAGARESCVSLFLVVLPSLLVQLLCLAEP
B3: ART2a: rat ADP-ribosyltransferase ART2a (RT6.1), SEQ ID NO:11, wild type (protein, listed as Rattus norvegicus)
chain: MPSNICKFFLTWWLIQQVTGLTGPLMLDTAPNAFDDQYEGCVNKMEEKAPLLLKEDFNKSEKLKVAWEEAKKRWNNIKPSMSYPKGFNDFHGTALVAYTGSIGVDFNRAVREFKENPGQFHYKAFHYYLTRALQLLSNGDCHSVYRGTKTRFHYTGAGSVRFGQFTSSSLSKTVAQSPEFFSDDGTLFIIKTCLGVYIKEFSFYPDQEEVLIPGYEVYQKVRTQGYNEIFLDSPKRKKSNYNCLYSSAGTRESCVSLFLVVLTSLLVQLLCLAEP
B4: ART2b(R204K): rat ART2b with arginine-to-lysine substitution at position 204 (protein)
chain: T1 sequence (P20974 21-246 R204K limits assumed)
B5: ART2a(59MNA61,Y204R): rat ART2a with K59M, S60N, E61A and Y204R substitutions, non-glycosylated (protein, UniProt P17982 21-246, looked up, variant K59M S60N E61A Y204R)
T-cell …: T1 sequence (P20974 21-246 R204K limits assumed) with Q34K, R61M, A83G, K153T, Q158P, H164D, K184R
B6: ART2a(M81R,Y204R): rat ART2a with M81R and Y204R substitutions (protein, UniProt P17982 21-246, looked up, variant M81R Y204R)
T-cell …: T1 sequence (P20974 21-246 R204K limits assumed) with Q34K, M39K, N40S, A41E, A83G, K153T, Q158P, H164D, K184R
B7: ART2a(Y204R): rat ART2a with tyrosine-to-arginine substitution at position 204 (protein)
chain: T1 sequence (P20974 21-246 R204K limits assumed) with Q34K, M39K, N40S, A41E, R61M, A83G, K153T, Q158P, H164D, K184R
B8: ART2b(R81K): rat ART2b with arginine-to-lysine substitution at position 81 (protein)
chain: T1 sequence (P20974 21-246 R204K limits assumed) with R61K, K184R
B9: ART2a(M81R): rat ART2a with methionine-to-arginine substitution at position 81 (protein)
chain: T1 sequence (P20974 21-246 R204K limits assumed) with Q34K, M39K, N40S, A41E, A83G, K153T, Q158P, H164D, K184Y

Tested on in the first data set: not listed separately
Put plainly: NAD glycohydrolase (NADase) assay. Type of data set: biochemical, rat. The conditions noted are these: PI-PLC released recombinant protein from NMU cells; 0.1 mM [carbonyl-^14C]NAD, 1 hour at 30° C. The protocol: (§1) NADase activity was measured in DPBS with 0.1 mM [carbonyl-^14C]NAD (8×10^4 cpm) for 1 hour at 30° C., (total volume=150,u). Samples (50,u) were applied to AG1-X2 (BIO-RAD, Hercules, Calif.) columns (0.4×4 cm), equilibrated and eluted with water for liquid scintillation counting as described (Moss et al., Proc Natl Acad Sci U S A 73(12):4424-7, 1976). Transferase activity was assayed similarly with or without 20 mM agmatine as ADP-ribose acceptor and with [adenine-^14C]NAD substituted for [carbonyl-^14C]NAD.
With B1, the NADase activity entry is reported as “greater than that of wild-type ART2b”.
The same measure, in the same setting: then B2, with “have NADase activity”.
Turning to B3, the NADase activity result is “have NADase activity”.

Staying with this data set, now noted: change over the course of the reaction.
For B4, the “NADase activity during the course of the reaction (rate of NAD hydrolysis)” value is “did not change”.
The same measure, in the same setting: then B1, with “decreased during the course of the reaction”; and B2, with “decreased during the course of the reaction”.

Tested on in a further data set: not listed separately
Put plainly: ADP-ribosyltransferase assay with agmatine as ADP-ribose acceptor. The note with it: 20 mM agmatine as ADP-ribose acceptor. The class given is biochemical, rat. How it is done: as §1
Take B1: the “transfer of ADP-ribose to agmatine” value is on record as “unable to transfer ADP-ribose to agmatine”.
For the molecule B2, the “transfer of ADP-ribose to agmatine” value is recorded as “unable to transfer ADP-ribose to agmatine”.

Tested on in the next data set: not listed separately
The data set can be described thus: Auto-ADP-ribosylation of PI-PLC released recombinant ART2 proteins with [^32P]NAD, SDS-PAGE. The note with it: 10 μM [^32P]NAD, followed by 5 mM unlabeled NAD. Type of data set: biochemical, rat. How it is done: To investigate the structural basis for these differences in catalytic function, site-specific mutagenesis was employed with synthesis of recombinant ART2b and ART2a proteins in rat adenocarcinoma cells (NMU) under a dexamethasone-sensitive promoter. After induction and expression of the GPI-anchored proteins, cells were incubated with PI-PLC to cleave the GPI anchor and then [^32P]-NAD was added to the medium to promote auto-ADP-ribosylation of the released protein (FIG. 2).
To assess the ability of ART2 proteins, ART2a and ART2b, to be auto-ADP-ribosylated at multiple sites, proteins were incubated first with 10 μM [^32P]NAD, followed by addition of 5 mM unlabeled NAD and further incubation (FIG. 4). […] It is unlikely that auto-modification was due to non-enzymatic addition of [^32P]ADP-ribose since reactions were carried out in the presence of 1 mM ADP-ribose, or due to NAD binding, since the radiolabel was not displaced by incubation with 5 mM NAD.
As to B4, the “auto-ADP-ribosylation at multiple sites (decrease in mobility on SDS-PAGE)” value is recorded as “not modified by incubation with NAD”.
Consider B5, for which the “auto-ADP-ribosylation at multiple sites (decrease in mobility on SDS-PAGE)” value is given as “exhibited auto-ADP-ribosylation following incubation with 5 mM NAD”.
On to B6, for which the “auto-ADP-ribosylation at multiple sites (decrease in mobility on SDS-PAGE)” value is “exhibited auto-ADP-ribosylation following incubation with 5 mM NAD”.
Same read-out and setting: under B7 stands “exhibited auto-ADP-ribosylation following incubation with 5 mM NAD”.
As to B8, the “auto-ADP-ribosylation at multiple sites (decrease in mobility on SDS-PAGE)” value is recorded as “exhibited auto-ADP-ribosylation following incubation with 5 mM NAD”.
B1: the “auto-ADP-ribosylation at multiple sites (decrease in mobility on SDS-PAGE)” value is listed as “weak auto-ADP-ribosylation activity at multiple sites”.
Still for that read-out and setting: then B2, with “exhibited auto-ADP-ribosylation following incubation with 5 mM NAD”.

Staying with this data set, now noted: [^32P]NAD added to PI-PLC released protein; SDS-PAGE.
On to B4, for which the auto-ADP-ribosylation entry was “abolished both the primary and secondary modifications”.
Still for that read-out and setting: under B9 stands “had no effect”.
B6: the auto-ADP-ribosylation result is “auto-ADP-ribosylation of both glycosylated 33 kDa and nonglycosylated 29 kDa forms was observed”.
B7: the auto-ADP-ribosylation result was “auto-ADP-ribosylation of both glycosylated 33 kDa and nonglycosylated 29 kDa forms was observed”.
Still for that read-out and setting: under B8 stands “no effect on auto-ADP-ribosylation”; under B1, “auto-ADP-ribosylation at non-arginine sites”; under B2, “significantly auto-ADP-ribosylated; also recorded: Multiple species of auto-ADP-ribosylated”.
The same measure, in the same setting: under B3 stands “not significantly auto-modified”.

Another data set deals with T1, ART2b(R204K). Put plainly: Incubation of wildtype ART2b with ART2b(R204K) and millimolar NAD (intermolecular modification). The class given is biochemical. The conditions noted are these: millimolar NAD, with or without ART2b(R204K). The protocol: The blots contain samples from cells expressing wild type ART2b (lanes 1), ART2b(R204K) (lanes 2), or a mixtures of samples containing ART2b and ART2b(R204K) (lanes 3). Samples were incubated with or without 10 μM [^32P]NAD followed by either TCA precipitation or further incubation with 5 mM NAD. The radiolabeled wild type ART2b and ART2b(R204K) proteins were combined and then incubated with or without 5 mM NAD.
To investigate whether ART2b(R204K) could be modified, wildtype ART2b was incubated with its mutant ART2b(R204K) and millimolar NAD (FIG. 5).
Turning to B4, the “modification (mobility on SDS-PAGE) after incubation of wildtype ART2b with ART2b(R204K) and NAD” value is “not modified by wildtype ART2b in an intermolecular reaction”.
The same measure, in the same setting: then B2, with “exhibited decreasing mobility on SDS-PAGE”.

Source of the values: patent publication US7923535B2, “Tryptophan as a functional replacement for ADP-ribose-arginine in recombinant proteins” (The United States of America as represented by the …, priority 2002, dated 2011).
